Values quoted from earlier work as cited in paper PMC9898751 (The Journal of Biological Chemistry, 2022).

How the values were obtained:
[1] = system: H3K9me2; conditions: H3K4me3 present in cis; ref [35]
[2] = system: H3K27me2; conditions: H3K4me3 present in cis; ref [35]
[3] = system: histone peptide bearing H3K4me3 and H3K9me2 in cis; conditions: in contrast to PHF8; ref [28]
[4] = phosphorylation by protein kinase A; ref [29]
[5] = system: peptide substrates; conditions: mass spectrometry– and fluorescence-based demethylase assays on peptide substrates; ref [28]

Row | Molecule | activity on H3K9me2 with H3K4me3 in cis [1] | activity toward H3K27me2 with H3K4me3 in cis [2] | activity on single histone peptide bearing H3K4me3 and H3K9me2 in cis [3] | activity before phosphorylation [4] | enzymatic activity in vitro [5]
1 | KIAA1718: KDM7 family Jumonji demethylase (protein, UniProt Q6ZMT4 1-941, looked up) Lysine-specific demethylase 7A: MAGAAAAVAAGAAAGAAAAAVSVAAPGRASAPPPPPPVYCVCRQPYDVNRFMIECDICKDWFHGSCVGVEEHHAVDIDLYHCPNCAVLHGSSLMKKRRNWHRHDYTEIDDGSKPVQAGTRTFIKELRSRVFPSADEIIIKMHGSQLTQRYLEKHGFDVPIMVPKLDDLGLRLPSPTFSVMDVERYVGGDKVIDVIDVARQADSKMTLHNYVKYFMNPNRPKVLNVISLEFSDTKMSELVEVPDIAKKLSWVENYWPDDSVFPKPFVQKYCLMGVQDSYTDFHIDFGGTSVWYHVLWGEKIFYLIKPTDENLARYESWSSSVTQSEVFFGDKVDKCYKCVVKQGHTLFVPTGWIHAVLTSQDCMAFGGNFLHNLNIGMQLRCYEMEKRLKTPDLFKFPFFEAICWFVAKNLLETLKELREDGFQPQTYLVQGVKALHTALKLWMKKELVSEHAFEIPDNVRPGHLIKELSKVIRAIEEENGKPVKSQGIPIVCPVSRSSNEATSPYHSRRKMRKLRDHNVRTPSNLDILELHTREVLKRLEMCPWEEDILSSKLNGKFNKHLQPSSTVPEWRAKDNDLRLLLTNGRIIKDERQPFADQSLYTADSENEEDKRRTKKAKMKIEESSGVEGVEHEESQKPLNGFFTRVKSELRSRSSGYSDISESEDSGPECTALKSIFTTEESESSGDEKKQEITSNFKEESNVMRNFLQKSQKPSRSEIPIKRECPTSTSTEEEAIQGMLSMAGLHYSTCLQRQIQSTDCSGERNSLQDPSSCHGSNHEVRQLYRYDKPVECGYHVKTEDPDLRTSSWIKQFDTSRFHPQDLSRSQKCIRKEGSSEISQRVQSRNYVDSSGSSLQNGKYMQNSNLTSGACQISNGSLSPERPVGETSFSVPLHPTKRPASNPPPISNQATKGKRPKKGMATAKQRLGKILKLNRNGHARFFV | inactive on H3K9me2 when H3K4me3 is present in cis | more selective toward H3K27me2 |  |  | 
2 | PHF2: KDM7 family Jumonji demethylase (protein, UniProt O75151 1-1096, looked up) Lysine-specific demethylase …: MATVPVYCVCRLPYDVTRFMIECDACKDWFHGSCVGVEEEEAPDIDIYHCPNCEKTHGKSTLKKKRTWHKHGPGQAPDVKPVQNGSQLFIKELRSRTFPSAEDVVARVPGSQLTLGYMEEHGFTEPILVPKKDGLGLAVPAPTFYVSDVENYVGPERSVDVTDVTKQKDCKMKLKEFVDYYYSTNRKRVLNVTNLEFSDTRMSSFVEPPDIVKKLSWVENYWPDDALLAKPKVTKYCLICVKDSYTDFHIDSGGASAWYHVLKGEKTFYLIRPASANISLYERWRSASNHSEMFFADQVDKCYKCIVKQGQTLFIPSGWIYATLTPVDCLAFAGHFLHSLSVEMQMRAYEVERRLKLGSLTQFPNFETACWYMGKHLLEAFKGSHKSGKQLPPHLVQGAKILNGAFRSWTKKQALAEHEDELPEHFKPSQLIKDLAKEIRLSENASKAVRPEVNTVASSDEVCDGDREKEEPPSPIEATPPQSLLEKVSKKKTPKTVKMPKPSKIPKPPKPPKPPRPPKTLKLKDGGKKKGKKSRESASPTIPNLDLLEAHTKEALTKMEPPKKGKATKSVLSVPNKDVVHMQNDVERLEIREQTKSKSEAKWKYKNSKPDSLLKMEEEQKLEKSPLAGNKDNKFSFSFSNKKLLGSKALRPPTSPGVFGALQNFKEDKPKPVRDEYEYVSDDGELKIDEFPIRRKKNAPKRDLSFLLDKKAVLPTPVTKPKLDSAAYKSDDSSDEGSLHIDTDTKPGRNARVKKESGSSAAGILDLLQASEEVGALEYNPSSQPPASPSTQEAIQGMLSMANLQASDSCLQTTWGAGQAKGSSLAAHGARKNGGGSGKSAGKRLLKRAAKNSVDLDDYEEEQDHLDACFKDSDYVYPSLESDEDNPIFKSRSKKRKGSDDAPYSPTARVGPSVPRQDRPVREGTRVASIETGLAAAAAKLSQQEEQKSKKKKSAKRKLTPNTTSPSTSTSISAGTTSTSTTPASTTPASTTPASTSTASSQASQEGSSPEPPPESHSSSLADHEYTAAGTFTGAQAGRTSQPMAPGVFLTQRRPSASSPNNNTAAKGKRTKKGMATAKQRLGKILKIHRNGKLLL |  |  | cannot act on a single histone peptide bearing H3K4me3 and H3K9me2 in cis | remains inactive until it is phosphorylated by protein kinase A | enzymatically inactive in vitro
